Data as given in the supplement of paper PMC10899765.

These sequences were tested on MCF10A (assay: 5+ nucleoli phenotype percent effect (relative to siNT 0% and siKIF11 100%); higher = more cells with five or more nucleoli). Conditions: 20 nM; 72 h.
Method: (§1)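 After 72 h, cells were fixed and stained with Hoechst and anti-fibrillarin, and nucleoli per nucleus were counted with CellProfiler. Values are plate-adjusted percent effect for the one-nucleolus and 5+ nucleoli phenotypes, normalised to siNT (0%) and to the positive controls siNOL11 or siKIF11 (100%), as the mean of biological triplicates. Percent viability is the nuclei count relative to siNT.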

Row | Sequence | 5+ nucleoli phenotype percent effect [%]
1 | UAUGUGCCUUUGGACUACAUCG [hsa-miR-455-5p] | -19.3
2 | GUGAGGGCAUGCAGGCCUGGAUGGGG [hsa-miR-1226-5p] | 53.3
3 | CAGUGCAAGUGUAGAUGCCGA [hsa-miR-3666] | 66.7
4 | UGGGCUGGCAGGGCAAGUGCUG [hsa-miR-4498] | -6.13
5 | AUUGACACUUCUGUGAGUAGA [hsa-miR-514a-3p] | -5.72
6 | GCUCUGACGAGGUUGCACUACU [hsa-miR-301b-5p] | 15.2
7 | AAACCUGUGUUGUUCAAGAGUC [hsa-miR-649] | 34.7
8 | UCAAGAGCAAUAACGAAAAAUGU [hsa-miR-335-5p] | 37.7
9 | CUAUACAAUCUACUGUCUUUC [hsa-let-7a-3p] | 10.6
10 | UAGAGGAAGCUGUGGAGAGA [hsa-miR-3125] | -14.5
11 | AGGAGAAGUAAAGUAGAA [hsa-miR-4434] | 49.4
12 | AUCGUGCAUCCUUUUAGAGUGU [hsa-miR-517c-3p] | -11.3
13 | AGGUGUUAUCCUAUCCAUUUGC [hsa-miR-4694-5p] | -15.4
14 | AUGGAGAUAGAUAUAGAAAU [hsa-miR-620] | -31.1
15 | AGAGGAUACCCUUUGUAUGUU [hsa-miR-1185-5p] | 5.5
16 | CAGAACAGGAGCAUAGAAAGGC [hsa-miR-4773] | 22.9
17 | UCGAGGACUGGUGGAAGGGCCUU [hsa-miR-3131] | -6.74
18 | AAAAGUAAUUGCAGUUUUUGC [hsa-miR-548ar-5p] | 22.8
19 | CUCUCUACUGACUUGCAACAUA [hsa-miR-4684-5p] | 33.1
20 | CAUCCGUCCGUCUGUCCAC [hsa-miR-4800-3p] | -3.64
21 | AGCUGUCUGUGUUUUCCUUCUCAG [hsa-miR-6876-3p] | -19.1
22 | AUGAAGCCUUCUCUGCCUUACG [hsa-miR-7843-3p] | -32.5
23 | CAAAACCGCGAUUACUCUUGCA [hsa-miR-548ay-3p] | -63.9
24 | GCUAAGGAAGUCCUGUGCUCAG [hsa-miR-4521] | 34.9
25 | UCUGAGUUCCUGGAGCCUGGUCU [hsa-miR-4682] | 18.8
26 | ACUGUUGCUAAUAUGCAACUCU [hsa-miR-367-5p] | 4.48
27 | AAGUGUGCAGGGCACUGGU [hsa-miR-648] | -33.3
28 | AUGCUGACAUAUUUACUAGAGG [hsa-miR-628-5p] | 32.8
29 | UUUUGCAUGACCCUGGGAGUAGG [hsa-miR-3680-3p] | -18.3
30 | UGGCGGCGGUAGUUAUGGGCUU [hsa-miR-4467] | -36

Each sequence was assayed on MCF10A (assay: one-nucleolus phenotype percent effect (relative to siNT 0% and siNOL11 100%); higher = more cells with one nucleolus (ribosome biogenesis inhibition)). Conditions: 20 nM; 72 h.
Method: as §1

Row | Sequence | one-nucleolus phenotype percent effect [%]
31 | UCCAGUACCACGUGUCAGGGCCA [hsa-miR-770-5p] | 29.4
32 | AUCUGCUCUCUUGUUCCCAG [hsa-miR-6828-3p] | 2.43
33 | UGUUGCAAGUCGGUGGAGACGU [hsa-miR-4684-3p] | 4.39
34 | AGGAUUUCAGAAAUACUGGUGU [hsa-miR-3167] | -14.6
35 | CGGGCGUGGUGGUGGGGGUG [hsa-miR-1268b] | 8.5
36 | UAGUGCAAUAUUGCUUAUAGGGU [hsa-miR-454-3p] | -20.8
37 | GCAGUAGUGUAGAGAUUGGUUU [hsa-miR-3129-5p] | -15
38 | AGCAGCAUUGUACAGGGCUAUGA [hsa-miR-103a-3p] | 15.6
39 | CUCCUACAUAUUAGCAUUAACA [hsa-miR-155-3p] | -5.11
40 | CAGGAAGGAGACAGGCAGUUCA [hsa-miR-6876-5p] | 10.4
41 | ACAGAGGACAGUGGAGUGUGAGC [hsa-miR-6847-5p] | -1.08
42 | AACGGGAAUGCAGGCUGUAUCU [hsa-miR-4681] | -21
43 | AAGCUGCCAGUUGAAGAACUGU [hsa-miR-22-3p] | -3.65
44 | AGUGGGAGGCCAGGGCACGGCA [hsa-miR-1233-1-5p] | 24.3
45 | GAGACUGGGGUGGGGCC [hsa-miR-4463] | -14.3
46 | AAAGUGCUUCCUUUUUGAGGG [hsa-miR-520e] | -14.9
47 | AACUAGUAAUGUUGGAUUAGGG [hsa-miR-3923] | 43.2
48 | UUUGGACAGAAAACACGCAGGU [hsa-miR-4520b-3p] | -21.6
49 | UCUGGCUGUUGUGGUGUGCAA [hsa-miR-3064-5p] | 46.2
50 | CAAAGCGCUUCUCUUUAGAGUGU [hsa-miR-518c-3p] | 37.7

Row | Sequence | one-nucleolus phenotype percent effect [%]
51 | UACGCGCAGACCACAGGAUGUC [hsa-miR-3939] | -5.45
52 | UUUGGGAUUGACGCCACAUGUCU [hsa-miR-6513-5p] | -20.1
53 | UAAUACUGCCGGGUAAUGAUGGA [hsa-miR-200c-3p] | -17
54 | UGUCUUCUCUCCUCCCAAACAG [hsa-miR-6740-3p] | 42.8
55 | CAAAAAUCUCAAUUACUUUUGC [hsa-miR-548c-3p] | -9.26
56 | UGGGGGAGCCAUGAGAUAAGAGCA [hsa-miR-4723-5p] | 21.2
57 | UGCCUCCCUGACAUUCCACAG [hsa-miR-6778-3p] | 10.1
58 | CUUAUAUCAGAGGCUGUGGG [hsa-miR-6083] | 28.6
59 | GUGAAAUGUUUAGGACCACUAG [hsa-miR-203a] | 10.2
60 | UAUGUGCCUUUGGACUACAUCG [hsa-miR-455-5p] | -2.17
61 | GUGAGGGCAUGCAGGCCUGGAUGGGG [hsa-miR-1226-5p] | -14.2
62 | CAGUGCAAGUGUAGAUGCCGA [hsa-miR-3666] | -18.2
63 | UGGGCUGGCAGGGCAAGUGCUG [hsa-miR-4498] | 38.7
64 | AUUGACACUUCUGUGAGUAGA [hsa-miR-514a-3p] | 13.2
65 | GCUCUGACGAGGUUGCACUACU [hsa-miR-301b-5p] | -22.6
66 | AAACCUGUGUUGUUCAAGAGUC [hsa-miR-649] | -16.6
67 | UCAAGAGCAAUAACGAAAAAUGU [hsa-miR-335-5p] | -9.96
68 | CUAUACAAUCUACUGUCUUUC [hsa-let-7a-3p] | -10.4
69 | UAGAGGAAGCUGUGGAGAGA [hsa-miR-3125] | 13.8
70 | AGGAGAAGUAAAGUAGAA [hsa-miR-4434] | -15.7

Row | Sequence | one-nucleolus phenotype percent effect [%]
71 | AUCGUGCAUCCUUUUAGAGUGU [hsa-miR-517c-3p] | 11.8
72 | AGGUGUUAUCCUAUCCAUUUGC [hsa-miR-4694-5p] | 24.2
73 | AUGGAGAUAGAUAUAGAAAU [hsa-miR-620] | 24
74 | AGAGGAUACCCUUUGUAUGUU [hsa-miR-1185-5p] | 2.36
75 | CAGAACAGGAGCAUAGAAAGGC [hsa-miR-4773] | -20.2
76 | UCGAGGACUGGUGGAAGGGCCUU [hsa-miR-3131] | 8.15
77 | AAAAGUAAUUGCAGUUUUUGC [hsa-miR-548ar-5p] | -24.8
78 | CUCUCUACUGACUUGCAACAUA [hsa-miR-4684-5p] | -6.81
79 | CAUCCGUCCGUCUGUCCAC [hsa-miR-4800-3p] | -2.39
80 | AGCUGUCUGUGUUUUCCUUCUCAG [hsa-miR-6876-3p] | 6.32
81 | AUGAAGCCUUCUCUGCCUUACG [hsa-miR-7843-3p] | 15.8
82 | CAAAACCGCGAUUACUCUUGCA [hsa-miR-548ay-3p] | 52
83 | GCUAAGGAAGUCCUGUGCUCAG [hsa-miR-4521] | -19.3
84 | UCUGAGUUCCUGGAGCCUGGUCU [hsa-miR-4682] | -20
85 | ACUGUUGCUAAUAUGCAACUCU [hsa-miR-367-5p] | -5.32
86 | AAGUGUGCAGGGCACUGGU [hsa-miR-648] | 40.5
87 | AUGCUGACAUAUUUACUAGAGG [hsa-miR-628-5p] | -9.78
88 | UUUUGCAUGACCCUGGGAGUAGG [hsa-miR-3680-3p] | 11.5
89 | UGGCGGCGGUAGUUAUGGGCUU [hsa-miR-4467] | 39.9
